Measurements from paper PMC12455949 (Journal of Virology, 2025).
Several values for one entry are separate records, joined by “and”; a condition that tells them apart may be missing. Equal values may be shown once.

Experiments:
Assay in all cases: BLI
Conditions in all cases: both partners purified
[1] = target: COBRA HA NG2, recombinant soluble (rHA) (Influenza A virus H3, designed COBRA NG2)
[2] = target: COBRA HA TJ2, recombinant soluble (rHA) (Influenza A virus H3, designed COBRA TJ2)
[3] = target: A/Port Chalmers/1/1973 HA, recombinant soluble (rHA) (Influenza A virus A/Port …, UniProt Q1PUD9, strain)
[4] = target: A/Texas/50/2012 HA, recombinant soluble (rHA) (Influenza A virus A/Texas/50/2012 (H3N2), UniProt R4L1D1, strain)
[5] = target: A/Panama/2007/1999 HA, recombinant soluble (rHA) (Influenza A virus A/Panama/2007/1999 …, UniProt Q1K9M3, strain)
[6] = target: A/Perth/16/2009 HA, recombinant soluble (rHA) (Influenza A virus A/Perth/16/2009 (H3N2), UniProt C6KNH7, strain)
[7] = target: COBRA HA J4, recombinant soluble (rHA) (Influenza A virus H3, designed COBRA J4)
[8] = target: A/Switzerland/9715293/2013 HA, recombinant soluble (rHA) (Influenza A virus …, strain)
[9] = target: A/Victoria/361/2011 HA, recombinant soluble (rHA) (Influenza A virus A/Victoria/361/2011 …, UniProt A0A097PF39, strain)
[10] = target: A/Victoria/361/2011 HA (Influenza A virus A/Victoria/361/2011 …, UniProt A0A097PF39, strain)
[11] = target: A/Texas/50/2012 HA (Influenza A virus A/Texas/50/2012 (H3N2), UniProt R4L1D1, strain)
[12] = target: A/Switzerland/9715293/2013 HA (Influenza A virus …, strain)
[13] = target: A/Perth/16/2009 HA (Influenza A virus A/Perth/16/2009 (H3N2), UniProt C6KNH7, strain)
[14] = target: A/Panama/2007/1999 HA (Influenza A virus A/Panama/2007/1999 …, UniProt Q1K9M3, strain)
[15] = target: A/Port Chalmers/1/1973 HA (Influenza A virus A/Port …, UniProt Q1PUD9, strain)

B1: mAb #1664 (antibody, V domains shown)
VH: EVQVMQSGAEARMTGATVKISCKASGYTFSDYFLHWVKQAPGKGLEWMGLVDVDNGEVRYAEKFQGRVTITADTSTETAYLEMTTVTSGDTAVYYCASTTPRGGNPSVYNYFFVDVWGKGTTVTVSS
VL: QPVLTQSSSASASLGSSVKLTCTLSSGHDNYIIAWHQQQPGKAPRYLMQVGAGGTYNKGSGVPHRFSGSSSGADRYLTISNLQSDDEADYYCETWDSKTVFGGGTTLTVL
notes: copies: 2 + 2
For B1, the Kd [1] was 135 nM and 143 nM, the Kd [2] was 0.47 nM and 0.43 nM and the binding result [3] was “no binding (tested: 1350 nM)”. The Kd [4] was 0.73 nM and 1.13 nM, the Kd [5] was 18.2 nM and 14.7 nM and the Kd [6] was 0.42 nM and 0.2 nM. For the same binder, the Kd [7] was 12.8 nM and 17.7 nM and the Kd [8] was 286 nM and 222 nM.

B2: mAb TJ5-1 (antibody, V domains shown)
VH: EVQLVQSGAEVKKPGASVKVSCKASGYTFTGFYLHWVRQAPGQGLEWMGWINPHSGDTDFAQKFQGKVTMTRDTSSNTVYMDVNRLTSDDTAVYYCVKNDIVLGMGVWGQGTTVIVSS
VL: QSVLTQPPSVSGAPGQRVTISCTGSSSNIGAGYNVYWFQQLPPTAPKLLNYGDNNRPSGVPDRFSASKSGTSASLAITGLQAEDEAEYYCQSYDSSLNAYVFGTGTKVTVL
With B2 the Kd [2] was 3.28 nM and 8.01 nM, the Kd [3] was 7.13 nM and 13.1 nM and the Kd [4] was 0.21 nM and 0.39 nM. For the same binder, the Kd [5] was 0.15 nM and 0.17 nM, the Kd [6] was 0.13 nM and 0.14 nM and the Kd [7] was 0.3 nM and 0.16 nM. For the same binder, the Kd [8] was 0.59 nM and 0.67 nM and the Kd [9] was 0.62 nM and 1.1 nM.

B3: mAb TJ5-13 (antibody, V domains shown)
V domain 1: QVQLVQSGAEVKKPGSSVKVSCEASGDTFTTYSGINWVRQAPGQGLEWMGGVLPNFGSPNYAQRFQGRITITVDRSTSLVHMELTNLRSDDTAVYYCTETGAYNSVGYFPYFQFRGQGTLVSVSS
V domain 2: QSVLTQPPSVSGAPGQRVTISCTGSSSNIGADYDVHWYQQLPGTAPKLLIFGNNNRPSGVPDRFSGSKSGTSASLAITGLQAEDEADYYCQSFDKSLSGSFVFGTGTKVTGQ
B3 was tested, and the Kd [1] was 2.34 nM and 6.81 nM, the binding result [3] was “no binding (tested: 1350 nM)” and the Kd [5] was 1.88 nM and 3.48 nM. For the same binder, the Kd [6] was 0.22 nM and 0.33 nM, the Kd [7] was 0.13 nM and 0.39 nM and the Kd [8] was 1.32 nM and 2.09 nM. For the same binder, the Kd [9] was 0.39 nM and 0.8 nM.

B4: mAb TJ5-1 (antibody, V domains shown)
VH: B2 VH
VL: B2 VL
In the case of B4, the Kd [10] is reported as 0.86 nM, the koff [10] is reported as 0.000195 s⁻¹ and the kon [10] is reported as 228000 M⁻¹ s⁻¹. The Kd [11] was 0.3 nM, the koff [11] was 8.93e-05 s⁻¹ and the kon [11] was 307000 M⁻¹ s⁻¹. It also gave a Kd [12] of 0.63 nM, a koff [12] of 0.00019 s⁻¹ and a kon [12] of 303000 M⁻¹ s⁻¹. For the same binder, the Kd [13] was 0.14 nM, the koff [13] was 3.66e-05 s⁻¹ and the kon [13] was 266000 M⁻¹ s⁻¹. The Kd [14] was 0.16 nM, the koff [14] was 4.97e-05 s⁻¹ and the kon [14] was 315000 M⁻¹ s⁻¹.

B5: mAb TJ5-13 (antibody, V domains shown)
V domain 1: B3 V domain 1
V domain 2: B3 V domain 2
B5 gave a Kd [10] of 0.59 nM, a koff [10] of 0.000128 s⁻¹ and a kon [10] of 218000 M⁻¹ s⁻¹. It also gave a Kd [11] of 0.42 nM, a koff [11] of 9.53e-05 s⁻¹ and a kon [11] of 257000 M⁻¹ s⁻¹. For the same binder, the Kd [12] was 1.71 nM, the koff [12] was 0.000166 s⁻¹ and the kon [12] was 98600 M⁻¹ s⁻¹. The Kd [13] was 0.27 nM, the koff [13] was 6.03e-05 s⁻¹ and the kon [13] was 226000 M⁻¹ s⁻¹. For the same binder, the Kd [14] was 1.14 nM, the koff [14] was 0.000304 s⁻¹ and the kon [14] was 114000 M⁻¹ s⁻¹. B5: no binding (tested: 100 nM rHA (exploratory assays)) [15].

B6: mAb #1664 (antibody, V domains shown)
VH: B1 VH
VL: B1 VL
Work on B6 yielded a Kd [10] of 0.84 nM, a koff [10] of 8.98e-05 s⁻¹ and a kon [10] of 119000 M⁻¹ s⁻¹. The Kd [11] was 0.93 nM, the koff [11] was 9.08e-05 s⁻¹ and the kon [11] was 98300 M⁻¹ s⁻¹. It also gave a Kd [12] of 254 nM, a koff [12] of 0.00379 s⁻¹ and a kon [12] of 15000 M⁻¹ s⁻¹. The Kd [13] was 0.31 nM, the koff [13] was 3.36e-05 s⁻¹ and the kon [13] was 108000 M⁻¹ s⁻¹. For the same binder, the Kd [14] was 16.4 nM, the koff [14] was 0.00179 s⁻¹ and the kon [14] was 109000 M⁻¹ s⁻¹. B6: no binding (tested: 100 nM rHA (exploratory assays)) [15].
